The source of these data is patent US6660837B1, “Modified protein derived from protein kinase N” (Kirin Beer Kabushiki Kaisha, priority 1995, dated 2003).

The test system of one assay is PKN in Swiss 3T3 cells. The assay is classed as cell-based. Particulars: 200 ng/ml for 10 min.
For assay [1], the target named is T1, binding of PKN to GTPγS.GST-RhoA (Homo sapiens, UniProt P61586).
T1 construct: made in house; PKN 1-474: in vitro translation
Put plainly: Inhibition of binding between in vitro translated PKN and GTPγS.GST-RhoA by synthetic peptides. Particulars: concentration-dependent. The protocol: A protein corresponding to the amino acid sequence 1-474 in SEQ ID NO: 1) was prepared by in vitro translation. GTPγS or GDP.GST-RhoA (15 nM) was incubated with PKN (1.5 μl) prepared by in vitro translation in a total volume of 200 μl of binding buffer (20 mM Tris/HCl at pH 7.5, 1 mM EDTA, 0.5 mM DTT, 5 mM MgCl2 and 1 μg/ml leupeptin) for 60 min at 4° C. Then 40 μl of glutathione-Sepharose 4B (Pharmacia Biotech) preincubated in binding buffer containing 10 mg/ml E. coli extracts to block non-specific binding was added, and the mixture was rotated for 30 min at 4° C. Unbound proteins were removed by four washes with binding buffer containing 0.2% Nonidet P-40 and 50 mM NaCl, and by two washes with binding buffer. Specifically bound proteins were eluted with binding buffer containing 10 mM reduced glutathione and subjected to SDS-PAGE, and the gel was subjected to autoradiography.
Synthetic peptide fragments for potential RhoA binding region of PKN were synthesized with an automated peptide synthesizer (Applied Biosystems, model 431). An experiment using synthetic peptides wes carried out using the peptides in various concentrations in 200 μl of binding buffer.

The target of the next assay is T2, RhoA^Val14 CLVL^− (Homo sapiens, UniProt P61586, G14V).
T2 construct: expressed in transfected cells; host or cells: yeast strain L40
The assay can be described thus: Yeast two-hybrid, truncated PKN with RhoA^Val14CLVL^−. The assay is classed as binding. Particulars: yeast L40. The source says: The cDNA fragments encoding various length of human PKN were inserted into the vector pBTM116 (Example 7) in frame with the upstream LexA DNA-binding domain sequences or the vector pVP16 (Example 7) in frame with the upstream VP16 transcription activation domain sequences. The cDNA fragments encoding human RhoA, RhoA^Val14, and RhoA^Ala37 were obtained by digesting pGEX-RhoA, pGEX-RhoA^Val14, and pGEX-RhoA^Ala37 (Example 1) with restriction enzymes, respectively, then cloned into pBTM116 and pVP16.
The expression plasmids were transfected into yeast L40 cells and plated on semi-solid media lacking tryptophan and leucine. Interaction was examined using a filter lift assay for the β-galactosidase activity in the same manner as in Example 6. […]

In assay [2] the target is T3, binding of full-length α-actinin (HuActSkl) to GST-PKNN1 (Homo sapiens, UniProt P35609).
T3 construct: 2 μl of in vitro translated full-length HuActSkl was mixed with 5 μg of GST-PKNN1 fusion protein; made in house; host or cells: HuActSkl: rabbit reticulocyte lysate; GST-PKNN1: E. coli
The assay can be described thus: Effect of PI4,5P2 on in vitro binding between α-actinin and PKN. The protocol:
For analysis of the effect of phosphatidylinositol 4,5 bisphosphate (PI4, 5P2) (Boehringer Mannheim) on the binding between α-actinin and PKN, 2 μl of in vitro translated full-length HuActSkl was mixed with 5 μg of GST-PKNN1 fusion protein or with 25 μg of GST alone in 400 μl of buffer P (20 mM Tris/HCl at pH 7.5, 0.5 mM DTT, 120 mM NaCl, 1 mM EDTA) and incubated for 1 hr at room temperature with or without PI4, 5P2. After addition of 25 μl of glutathione-Sepharose 4B pretreated with E. coli extract, the binding reaction was continued for additional 30 min at 4° C. The glutathione-Sepharose 4B was then washed four times in buffer P containing 0.01% Triton X-100. Bound proteins were eluted with GST elution buffer and were subjected to SDS-PAGE. The binding was visualized and quantitated by an imaging analyzer (FUJI BAS1000).

Another assay deals with α-actinin (HuActSkl). The assay can be described thus: Yeast two-hybrid, regions of PKN with HuActSkl. The assay is classed as binding, human. The protocol: Schemes of the fusion constructs for human PKN, human skeletal muscle type α-actinin (HuActSkl , designated in (Beggs, A., et al., J. Biol. Chem. 267, 9281-9288 (1992)) and non-skeletal muscle type α-actinin (HuActNm, designated in (Beggs, A., et al., J. Biol. Chem. 267, 9281-9288 (1992)) used in this study are shown in FIGS. 41 and 42. Screening of proteins, which bind to the N-terminal region of human PKN (the amino acid sequence 1-540, this region being designated as “PKNNl”), was performed as described in Example 6. Primary positive clones were recovered and retransfected into the original yeast host strain YGH1 (a, ura3-52, his3-200, ade2-101, lys2-801, trpl-901, leu2-3, Can^r, gal4-542, gal80-538, LYS2::gal1uas-gal1tala-HIS3, URA3::gall-lacZ) in combination with the Gal4bd-PKN or the Gal4bd-p53 tumor suppresser. Plasmids that activated marker expression only in the presence of PKN were analyzed further.
The two-hybrid methods was employed to identify the region of PKN that interacted with HuActSkl , and this region was compared with the binding site for RhoA, which binds to PKN, in vitro and in vivo. […] This region corresponds to the second leucine zipperlike sequence and the N-terminal region adjacent thereto, which is conserved through evolution in vertebrates (Mukai, H., et al., Biochim. Biophys. Acta 1261, 296-300 (1995)). […]

For a further assay, the target named is T4, wild type RhoA (Homo sapiens, UniProt P61586).
T4 construct: expressed in transfected cells; host or cells: yeast strain L40
Put plainly: Yeast two-hybrid, N-terminal region of PKN with wild type RhoA. The format is binding. Particulars: yeast L40, histidine requirement. The source says: (§1) According to a method described in A. B. Vojetk et al. Cell 74, 205-214 (1993), wild type H-Ras, wild type RhoA with C-terminal CAAX structure removed (S. Ando et al. Jikken Igaku 11, 1973-1980 (1993)), and variant RhoA^Val14cDNA fragment, were introduced into pBTM116 vector (A. B. Vojetk et al, ibid.) to construct vectors (designated as pBTM116-RasWT, pBTM116-RhoWT, and pBTM116-Rho^Val14), for expression thereof and LexA as fusion protein in yeast cells, which were then transformed into yeast (strain L40).
(§2) cDNA in N-terminal region (the amino acid sequence 7-155 in SEQ ID NO: 1) of PKN was introduced into BamHI site of pACT vector ([…] Library Kit, manufactured by Clontech Laboratories, Inc.) to construct a vector (designated as pACTIIHK-PKN-N) for expression thereof and GAL4 as fusion protein in yeast cells. The cDNA fragment, used here, corresponding to the N-terminal region of PKN was prepared as described in Example 4 (1).
(§3) Yeast transformed with pBTM116-RasWT, pBTM116-RhoWT, and pBTM116-Rho^Val14 was further transformed with pACTIIHK-PKN-N. Transformants were screened based on histidine requirement (A. B. Vojetk et al, Cell 74, 205-214 (1993).

In another assay the target is T5, variant RhoA^Val14 (Homo sapiens, UniProt P61586, G14V).
T5 construct: expressed in transfected cells; host or cells: yeast strain L40
The assay can be described thus: Yeast two-hybrid, N-terminal region of PKN with RhoA^Val14. The assay is classed as binding. Conditions: yeast L40, histidine requirement.
Source text: as §1, §2, §3

Entries after “also recorded” stand apart in the source; their conditions may differ.

As for lysophosphatidic acid [LAP], in the assay on PKN in Swiss 3T3 cells, the “stimulation of autophosphorylation of PKN” value was “twice”. Turning to “amino acid sequence 82-103: synthetic peptide fragment corresponding to the amino acid sequence 82-103 in SEQ ID NO: 1 (RRLDLLHQQLQELHAHVVLPDP; UniProt Q16512 82-103, looked up, fragment)”, the “inhibition of binding of PKN to GTPγS.GST-RhoA” value (from here on “inhibition of binding of PKN”) in assay [1] is on record as “excellent inhibitory activity; also recorded: inhibited the binding”. Regarding “amino acid sequence 1-538: truncated human PKN, amino acid sequence 1-538 in SEQ ID NO: 1, two-hybrid fusion”, the “interaction with RhoA^Val14 CLVL^− (β-galactosidase filter assay)” value with RhoA^Val14 CLVL^− is on record as “interacted”. Turning to “amino acid sequence 74-93: synthetic peptide fragment corresponding to the amino acid sequence 74-93 in SEQ ID NO: 1 (ELLLRGSSRRLDLLHQQLQE; UniProt Q16512 74-93, looked up, fragment)”, the “inhibition of binding of PKN” value in assay [1] was “inhibited the binding”. Regarding “phosphatidylinositol 4,5 bisphosphate [PI4, 5P2]”, the “effect on binding of full-length α-actinin to PKN” value in assay [2] (10 μM) is on record as “stimulated the binding”. In addition, the “concentration up to which binding activity was elevated” value in assay [2] (decreased at higher concentrations up to 100 μM) was in the range of 2.5 to 10 µM. On to “amino acid sequence 33-111: truncated human PKN, amino acid sequence 33-111 in SEQ ID NO: 1, Rho protein-binding region”, for which the “interaction with RhoA^Val14 CLVL^− (β-galactosidase filter assay)” value in the assay with RhoA^Val14 CLVL^− was “interacted”. Besides, the “interaction with α-actinin in two-hybrid system” value with α-actinin (HuActSkl) is “hardly interacted”. On to “N-terminal region (amino acids 7-155) of PKN: amino acid sequence 7-155 in SEQ ID NO: 1 expressed as GAL4 fusion protein in yeast”, for which the “binding to wild type RhoA” value with wild type RhoA is listed as “binds”. Further, in the assay with variant RhoA^Val14, the “binding to variant RhoA^Val14” value is reported as “binds”. “amino acid sequence 94-113: synthetic peptide fragment corresponding to the amino acid sequence 94-113 in SEQ ID NO: 1 (LHAHVVLPDPAATHDGPQSP; UniProt Q16512 94-113, looked up, fragment)”: in assay [1], the “inhibition of binding of PKN” value is “inhibited the binding”.
